# Assay results as given in PMC7457611 (bioRxiv, 2020).
# Biological target: SARS-CoV-2 spike receptor-binding domain (RBD), residues 331-524 (SARS-CoV-2, early isolate GenBank …, UniProt P0DTC2)
# Experiment: SPR
row,Binder,binding result
1,"C119 IgG (antibody, V domains shown) VH: QVQLVQSGAEVKKPGASVKVSCKASGYTFTSYYMHWVRQAPGQGLEWMGIINPSGGSTSYAQKLQGRVTMTRDTSTSTVYMELSSLRSEDTAVYYCARANHETTMDTYYYYYYMDVWGKGTTVTVSS VL: QSALTQPASVSGSPGQSITISCTGTSSDVGGYKYVSWYQRHPGKAPKLMIYDVSNRPSGVSNRFSGSKSGNTASLTISGLQAEDEADYYCSSYTSSSTSVVFGGGTQLTVL",binds
2,"C121 IgG (antibody, V domains shown) VH: not shown VL: QSALTQPASVSGSPGQSITISCTGTSSDVGSYNLVSWYQQHPGKAPKLMIYEGSKRPSGVSNRFSGSKSGNTASLTISGLQAEDEADYYCCSYAGSSTLVFGGGTKLTVL",binds
3,"C104 IgG (antibody, V domains shown) VH: QVQLQQWGAGLLKPSETLSLSCAVYGGSLSGYYWSWIRQPPGKGLEWIGEINHFGSTGYNPSLKSRVTISVDTSKSQFSVKLSSVTAADTAVYYCARKPLLYSNLSPGAFDIWGQGTMVTVSS VL: EIVLTQSPGTVSLSPGERATLSCWASQSVSASYLAWYQQKPGQAPRLLIYGASSRATGIPDRFSGSGSGTDFTLTISRLEPEDFAVYYCQQYGTTPRTFGGGTKVEIK",binds
4,"C105 IgG (antibody, V domains shown) VH: QVQLVESGGGLIQPGGSLRLSCAASGFTVSSNYMSWVRQAPGKGLEWVSVIYSGGSTYYADSVKGRFTISRDNSKNTLYLQMNSLRAEDTAVYYCARGEGWELPYDYWGQGTLVTVSS VL: QSALTQPPSASGSPGQSVTISCTGTSSDVGGYKYVSWYQQHPGKAPKLMIYEVSKRPSGVPDRFSGSKSGNTASLTVSGLQAEDEADYYCSSYEGSNNFVVFGGGTKLTVL",binds
5,"C110 IgG (antibody, V domains shown) VH: QVQLQQSGAEVKKPGESLKISCKGSGYSFTSYWIGWVRQMPGKGLEWMGIIYPGDSDTRYSPSFQGQVTISADKSISTAYMQWSSLKASDTAMYYCARSFRDDPRIAVAGPADAFDIWGQGTMVTVSS VL: DIQMTQSPSTLSASVGDRVTITCRASQSISYWLAWYQQKPGKAPKLLIYQASSLESGVPSRFSGSESGTEFTLTISSLQPDDFATYYCQQYNSYPYTFGQGTKLEIK",binds
6,"C002 IgG (antibody, V domains shown) VH: EVQLVESGGGVVQPGRSLRLSCAASGFTFSIYGMHWVRQAPGKGLEWVAVISYDGSNKYYADSVKGRFTISRDNSKNTLYLQMNSLRAEDTAVYYCAKEGRPSDIVVVVAFDYWGQGTLVTVSS VL: not shown",binds
